Experimental data from US20200207869A1.

Molecular target: VWF in the plasma of the mice (endogenous murine VWF) (murine) (UniProt Q8CIZ8)
Experiment: sandwich ELISA of mouse plasma, anti-FVII capture, anti-VWF detection, n=4 mice

B1: FVII-KB13-bv (protein)
chain: AGGVAKASGGETRDMPWKPGPHRVFVTQEEAHGVLHRRRRANAFLEELRPGSLERECKEEQCSFEEAREIFKDAERTKLFWISYSDGDQCASSPCQNGGSCKDQLQSYICFCLPAFEGRNCETHKDDQLICVNENGGCEQYCSDHTGTKRSCRCHEGYSLLADGVSCTPTVEYPCGKIPILEKRNASKPQGRIVGGKVCPKGECPQVLLLVNGAQLCGGTLINTIWVVSAAHCFDKIKNWRNLIAVLGEHDLSEHDGDEQSRRVAQVIIPSTYVPGTTNHDIALLRLHQPVVLTDHVVPLCLPERTFSERTLAFVRFSLVSGWGQLLDRGATALELMVLNVPRLMTQDCLQQSRKVGDSPNITEYMFCAGYSDGSKDSCKGDSGGPHATHYRGTWYLTGIVSWGQGCATVGHFGVYTRVSQYIEWLQKLMRSEPRPGVLLRAPFPLTPRGVRLGGGSGGGSGGGSGGGSQVQLVQSGGGLVQAGDSLRLSCAASGRTFIRYAMAWFRQAPGKEREFVAAIPQSGGRSYYADSVKGRFTISRDNAKNTVYLQMNSLKPEDTAVYSCAATSTYYGRSAYSSHSGGYDYWGQGTQVTVSSGGGSGGGSGGGSGGGSQVQLVQSGGGLVQAGDSLRLSCAASGRTFIRYAMAWFRQAPGKEREFVAAIPQSGGRSYYADSVKGRFTISRDNAKNTVYLQMNSLKPEDTAVYSCAATSTYYGRSAYSSHSGGYDYWGQGTQVTVSS
OD450 nm: 0.684 OD450 nm
